Test results reported in US10407662B2, “Method of culturing pluripotent stem cell, and polypeptide to be used therefor” (FUJIFILM Corporation, priority 2012, dated 2019).

What was measured:
Format in all cases: cell-based
human iPS cells [1] = test: Cell Adhesiveness Evaluation 2 (synthetic peptide inhibition of cell adhesion to natural vitronectin); conditions: 100 μM synthetic peptide
Method: Polypeptides listed in Table 7 were synthesized by Emoc solid phase synthesis. A surface to which natural vitronectin was adsorbed at a concentration of 130 pmol/m^2, and thereafter, a cell suspension to which 100 μM of the above-described synthetic peptide was added was seeded at a rate of 30,000 cells/well. The number of adherent cells after 24 h post seeding was calculated by the same technique as in <Cell Adhesiveness Evaluation 1>.

human iPS cells [2] = test: Proliferation Evaluation of iPS cells on polypeptide-coated plate; conditions: for The Number (%) of Cells after 3 Days: 5000 cells/well
Method: The iPS cells collected in the same manner as in <Cell Adhesiveness Evaluation 1>described above were seeded on a 96-well plate, to which RCP-1, RCP-11, and the natural human vitronectin were adsorbed, at a rate of 250 cells/well, and were cultured in a 5% CO2 incubator at 37° C. for 8 days. The number of adherent cells after each lapse of time was measured by the same method as in <Cell Adhesiveness Evaluation 1> described above, to obtain proliferation curves, The proliferation curves were indicated in FIG. 2. In FIG. 2, a black rhombus represents an example in which RCP-1 was used, while a black tetragon represents an example in which RCP-11 was used.
Similarly, each of samples from […] was prepared so as to have an addition concentration listed in Table 8 with each of from RCP-1 to RCP-10, and RCP-17, and Human Recombinant Laminin-511 as a reference, was seeded on a 96-well plate, to which each polypeptide was adsorbed, at a rate of 5000 cells/well in the same manner as in<Cell Adhesiveness Evaluation 1> described above, and was cultured in a CO2 incubator at 37° C. for 3 days. The number of cells after the 3 days was measured by the same method as in <Cell Adhesiveness Evaluation 1> described above.

human iPS cells [3] = test: Evaluation of Maintenance of Undifferentiation (colony form, NANOG staining); conditions: for form of iPS cell colonies: FIG. 3, TESR2, subculture every six days; for NANOG expression (immunostaining): FIG. 4; for NANOG expression (immunostaining) / maintenance of undifferentiated state: cultured for 1 month
Method: iPS cells collected in the same manner as in <Cell Adhesiveness Evaluation 1> described above were suspended in TESR2. Induced pluripotent stem cells (iPS cells) were seeded on a 6-well plate (Tissue Culture-Treated, Falcon) to which each of the sample 1, the sample 2, the sample 5, the sample 6, and the sample 7 used in <Cell Adhesiveness Evaluation 1> described above was adsorbed in the same manner as in <Cell Adhesiveness Evaluation 1>, and were cultured in a CO2 incubator at 37° C. The culture medium was replaced by a fresh culture medium every day except the next day after the seeding. Subculture was performed by the same method as mentioned above every six days.
The cells were cultured under these conditions for 1 month, thereafter immobilized with 4% paraformaldehyde, and made to have membrane permeability enhanced with 1% Triton-X/PBS. Blocking treatment was performed with an Image IT Signal Enhancer (Invitrogen), followed by adding an anti-human NANOG antibody (AF1997, R&D Systems, Inc), ALEXA FLUOR 555-CONJUGATE rabbit anti-goat IgG antibody (Invitrogen), and DAPI (Dojindo Laboratories), by performing labeling, and by photographing the cells with a fluorescence microscope.
In each of FIG. 3 and FIG. 4, “A”, “B”, “C” “D”, and “E” show iPS cells cultured on RCP-1, iPS cells cultured on RCP-11, iPS cells cultured on the natural human vitronectin, iPS cells cultured on rinaminin-5, and iPS cells cultured on rLaminin-511, respectively. Scale bar: 100 μm. In FIG. 3, overall colony images are shown in the left column, while magnified images are shown in the right column; and in FIG. 4, DAPI-stained images are shown in the left column while anti-NANOG antibody-stained images are shown in the right column. Scale bars in FIGS. 3 and 4: 200 μm.

In the case of CCTDYTAECKPQVTRGDVFT [Peptide-5], the “inhibition of cell adhesion to natural vitronectin (in words)” value (from here on “inhibition of cell adhesion”) (human iPS cells [1]) is reported as “significantly inhibited”.

For CCTDYTAECKPQVTRGEVFT [Peptide-7], the “inhibition of cell adhesion” value (human iPS cells [1]) was “adhesion inhibition did not occur”.

With DKKCQCDELCSYYQSCCTDY [Peptide-4] the “inhibition of cell adhesion” value (human iPS cells [1]) was “significantly inhibited”.

For DQESCKGRCTEGFNVDKKCQ [Peptide-1], the “inhibition of cell adhesion” value (human iPS cells [1]) was “adhesion inhibition did not occur”.

For “Laminin-511: recombinant laminin (Human Recombinant Laminin-511: Biolamina)”, the “The Number (%) of Cells after 3 Days” value (human iPS cells [2]; addition amount 1.28 μg/cm^2) was 56.8%.

B1: RCP-4: recombinant polypeptide, Met + human vitronectin positions 1-55, 312-341, 342-373 (protein)
chain: MDQESCKGRCTEGFNVDKKCQCDELCSYYQSCCTDYTAECKPQVTRGDVFTMPEDEQPQFISRDWHGVPGQVDAAMAGRIYISGMAPRPSLAKKQRFRHRNRKGYRSQRGHSRGRNQN
modifications: Synthetic Peptide RCP-4
In the case of B1, the “The Number (%) of Cells after 3 Days” value (human iPS cells [2]; addition amount 20 μg/cm^2) is reported as 120.7%.

B2: RCP-17: recombinant polypeptide, Met + SEQ ID NO:38; vitronectin positions 1-55, 269-277, 295-341, 342-373, C274S (printed as RCP-11 in Table 2) (protein)
chain: MDQESCKGRCTEGFNVDKKCQCDELCSYYQSCCTDYTAECKPQVTRGDVFTMPEDESQEESEGSEDIFELLFWGRTSAGTRQPQFISRDWHGVPGQVDAAMAGRIYISGMAPRPSLAKKQRFRHRNRKGYRSQRGHSRGRNQN
modifications: Synthetic Peptide RCP-17
With B2 the “The Number (%) of Cells after 3 Days” value (human iPS cells [2]; addition amount 5 μg/cm^2) was 153.5%.

B3: RCP-8: recombinant polypeptide, Met + human vitronectin positions 1-55, 269-373, 374-379, C274S (protein)
chain: MDQESCKGRCTEGFNVDKKCQCDELCSYYQSCCTDYTAECKPQVTRGDVFTMPEDESQEESEGSSLSAVFEHFAMMQRDSWEDIFELLFWGRTSAGTRQPQFISRDWHGVPGQVDAAMAGRIYISGMAPRPSLAKKQRFRHRNRKGYRSQRGHSRGRNQNSRRPSR
modifications: Synthetic Peptide RCP-8
notes: recombinant polypeptide, Met + human vitronectin positions 1-55, 269-373, 374-379, C274S
For B3, the “The Number (%) of Cells after 3 Days” value (human iPS cells [2]; addition amount 5 μg/cm^2) was 171.0%.

B4: RCP-5: recombinant polypeptide, Met + human vitronectin positions 1-55, 302-341, 342-373 (protein)
chain: MDQESCKGRCTEGFNVDKKCQCDELCSYYQSCCTDYTAECKPQVTRGDVFTMPEDEFWGRTSAGTRQPQFISRDWHGVPGQVDAAMAGRIYISGMAPRPSLAKKQRFRHRNRKGYRSQRGHSRGRNQN
modifications: Synthetic Peptide RCP-5
For B4, the “The Number (%) of Cells after 3 Days” value (human iPS cells [2]; addition amount 10 μg/cm^2) was 121.2%.

B5: Natural vitronectin: human vitronectin (extracted from human plasma, BD Biosciences) (protein, listed as Homo sapiens)
chain: DQESCKGRCTEGFNVDKKCQCDELCSYYQSCCTDYTAECKPQVTRGDVFTMPEDEYTVYDDGEEKNNATVHEQVGGPSLTSDLQAQSKGNPEQTPVLKPEEEAPAPEVGASKPEGIDSRPETLHPGRPQPPAEEELCSGKPFDAFTDLKNGSLFAFRGQYCYELDEKAVRPGYPKLIRDVWGIEGPIDAAFTRINCQGKTYLFKGSQYWRFEDGVLDPDYPRNISDGFDGIPDNVDAALALPAHSYSGRERVYFFKGKQYWEYQFQHQPSQEECEGSSLSAVFEHFAMMQRDSWEDIFELLFWGRTSAGTRQPQFISRDWHGVPGQVDAAMAGRIYISGMAPRPSLAKKQRFRHRNRKGYRSQRGHSRGRNQNSRRPSRATWLSLFSSEESNLGANNYDDYRMDWLVPATCEPIQSVFFFSGDKYYRVNLRTRRVDTVDPPYPRSIAQYWLGCPAPGHL
modifications: glycosylated, plasma-derived
In the case of B5, the “form of iPS cell colonies” value (human iPS cells [3]) is reported as “homogeneous colony and a form characteristic for undifferentiated cells having a high nucleus occupying rate”, the “NANOG expression (immunostaining)” value (human iPS cells [3]) is reported as “strongly expressed NANOG in an overall colony” and the “maintenance of undifferentiated state” value (human iPS cells [3]) is reported as “undifferentiated state was favorably maintained”.

B6: RCP-2: recombinant polypeptide, Met + human vitronectin positions 1-55, 342-373 (protein)
chain: MDQESCKGRCTEGFNVDKKCQCDELCSYYQSCCTDYTAECKPQVTRGDVFTMPEDEPRPSLAKKQRFRHRNRKGYRSQRGHSRGRNQN
modifications: Synthetic Peptide RCP-2
B6 was tested, and the “The Number (%) of Cells after 3 Days” value (human iPS cells [2]; addition amount 20 μg/cm^2) was 81.7%.

B7: RCP-6: recombinant polypeptide, Met + human vitronectin positions 1-55, 269-459, C274S (protein)
chain: MDQESCKGRCTEGFNVDKKCQCDELCSYYQSCCTDYTAECKPQVTRGDVFTMPEDESQEESEGSSLSAVFEHFAMMQRDSWEDIFELLFWGRTSAGTRQPQFISRDWHGVPGQVDAAMAGRIYISGMAPRPSLAKKQRFRHRNRKGYRSQRGHSRGRNQNSRRPSRATWLSLFSSEESNLGANNYDDYRMDWLVPATSEPIQSVFFFSGDKYYRVNLRTRRVDTVDPPYPRSIAQYWLGSPAPGHL
modifications: Synthetic Peptide RCP-6
notes: recombinant polypeptide, Met + human vitronectin positions 1-55, 269-459, C274S
For B7, the “The Number (%) of Cells after 3 Days” value (human iPS cells [2]; addition amount 20 μg/cm^2) was 70.5%.

B8: RCP-7: recombinant polypeptide, Met + human vitronectin positions 1-55, 269-373, C274S (protein)
chain: MDQESCKGRCTEGFNVDKKCQCDELCSYYQSCCTDYTAECKPQVTRGDVFTMPEDESQEESEGSSLSAVFEHFAMMQRDSWEDIFELLFWGRTSAGTRQPQFISRDWHGVPGQVDAAMAGRIYISGMAPRPSLAKKQRFRHRNRKGYRSQRGHSRGRNQN
modifications: Synthetic Peptide RCP-7
notes: recombinant polypeptide, Met + human vitronectin positions 1-55, 269-373, C274S
B8 was tested, and the “The Number (%) of Cells after 3 Days” value (human iPS cells [2]; addition amount 5 μg/cm^2) was 89.9%.

B9: RCP-3: recombinant polypeptide, Met + human vitronectin positions 1-55, 322-341, 342-373 (protein)
chain: MDQESCKGRCTEGFNVDKKCQCDELCSYYQSCCTDYTAECKPQVTRGDVFTMPEDEGVPGQVDAAMAGRIYISGMAPRPSLAKKQRFRHRNRKGYRSQRGHSRGRNQN
modifications: Synthetic Peptide RCP-3
In the case of B9, the “The Number (%) of Cells after 3 Days” value (human iPS cells [2]; addition amount 20 μg/cm^2) is reported as 109.7%.

B10: RCP-11: comparative recombinant polypeptide, GPLG + positions 1-459; corresponds to the sequence of natural human vitronectin (protein)
chain: GPLGDQESCKGRCTEGFNVDKKCQCDELCSYYQSCCTDYTAECKPQVTRGDVFTMPEDEYTVYDDGEEKNNATVHEQVGGPSLTSDLQAQSKGNPEQTPVLKPEEEAPAPEVGASKPEGIDSRPETLHPGRPQPPAEEELCSGKPFDAFTDLKNGSLFAFRGQYCYELDEKAVRPGYPKLIRDVWGIEGPIDAAFTRINCQGKTYLFKGSQYWRFEDGVLDPDYPRNISDGFDGIPDNVDAALALPAHSYSGRERVYFFKGKQYWEYQFQHQPSQEECEGSSLSAVFEHFAMMQRDSWEDIFELLFWGRTSAGTRQPQFISRDWHGVPGQVDAAMAGRIYISGMAPRPSLAKKQRFRHRNRKGYRSQRGHSRGRNQNSRRPSRATWLSLFSSEESNLGANNYDDYRMDWLVPATCEPIQSVFFFSGDKYYRVNLRTRRVDTVDPPYPRSIAQYWLGCPAPGHL
modifications: Synthetic Peptide CRP-11
With B10 the “number of cells smaller than that of RCP-1, as fraction of RCP-1” value (human iPS cells [2]; culture day 8, FIG. 2) was “around ⅓”, the “form of iPS cell colonies” value (human iPS cells [3]) was “homogeneous colony and a form characteristic for undifferentiated cells having a high nucleus occupying rate” and the “NANOG expression (immunostaining)” value (human iPS cells [3]) was “strongly expressed NANOG in an overall colony”. The “maintenance of undifferentiated state” value (human iPS cells [3]) was “undifferentiated state was favorably maintained”.
